Measured values from patent US20200369765A1 (INNATE PHARMA, published 2020).
Positions count from the first letter of the chain named. One block for each binder: values may come before it.

Tests used:
Human Siglec-9 mutant M2 = biological target: T1, Human Siglec-9 mutant M2 (human, UniProt Q9Y336 18-463); assay: flow cytometry, HEK293T transfectants
T1 construct: Expressed on HEK293T cells; also called Mutant 2

Human Siglec-9 mutant M3 = biological target: T2, Human Siglec-9 mutant M3 (human, UniProt Q9Y336 18-463); assay: flow cytometry, HEK293T transfectants
T2 construct: Expressed on HEK293T cells; also called Mutant 3

Human Siglec-9 mutant M5 = biological target: T3, Human Siglec-9 mutant M5 (human, UniProt Q9Y336 18-463); assay: flow cytometry, HEK293T transfectants
T3 construct: Expressed on HEK293T cells; also called Mutant 5

Human Siglec-9 mutant M6 = biological target: T4, Human Siglec-9 mutant M6 (human, UniProt Q9Y336 18-463); assay: flow cytometry, HEK293T transfectants
T4 construct: Expressed on HEK293T cells; also called Mutant 6

Human Siglec-9 mutant M7 = biological target: T5, Human Siglec-9 mutant M7 (human, UniProt Q9Y336 18-463); assay: flow cytometry, HEK293T transfectants
T5 construct: Expressed on HEK293T cells; also called Mutant 7

Human Siglec-9 mutant M8 = biological target: T6, Human Siglec-9 mutant M8 (human, UniProt Q9Y336 18-463); assay: flow cytometry, HEK293T transfectants
T6 construct: Expressed on HEK293T cells; also called Mutant 8

Human Siglec-9 mutant M9 [1] = biological target: T7, Human Siglec-9 mutant M9 (human, UniProt Q9Y336 18-463); assay: flow cytometry, HEK293T transfectants
T7 construct: Expressed on HEK293T cells; also called Mutant 9

[2] = biological target: T8, Human Siglec-9 mutant M10 (human, UniProt Q9Y336 18-463); assay: flow cytometry, HEK293T transfectants
T8 construct: Expressed on HEK293T cells; also called Mutant 10

[3] = biological target: T9, Human Siglec-9 mutant M11 (human, UniProt Q9Y336 18-463); assay: flow cytometry, HEK293T transfectants
T9 construct: Expressed on HEK293T cells; also called Mutant 11

[4] = biological target: T10, Human Siglec-9 mutant M15 (human, UniProt Q9Y336 18-463); assay: flow cytometry, HEK293T transfectants
T10 construct: Expressed on HEK293T cells; also called Mutant 15

Human Siglec-9 [5] = biological target: T11, Human Siglec-9 (human, UniProt Q9Y336 18-463); assay: flow cytometry on fresh purified human NK cells, mean of 4 donors
T11 construct: On transfected CHO cells; also on YTS and KHYG-1 transfectants, primary NK cells and moDC; also called huSiglec-9; CD329
Protocol: Binding of antibodies on fresh purified human NK cells was tested by titration experiment by flow cytometry. Cells were incubated 1h in Staining Buffer (SB) with primary antibodies at 10 ug/ml and a series of dilution of 1:10. They were washed three times with SB, then incubated 30 min with a Goat F(ab′)² Anti-Human IgG (Fc) PE (Jackson ImmunoResearch). Stainings were acquired on a BD FACS Canto II and analyzed using the FlowJo software. EC₅₀ values are shown in the table below in μg/ml (calculated using a 4-parameter logistic fit).
Target sequence in this assay (Q9Y336 18-463): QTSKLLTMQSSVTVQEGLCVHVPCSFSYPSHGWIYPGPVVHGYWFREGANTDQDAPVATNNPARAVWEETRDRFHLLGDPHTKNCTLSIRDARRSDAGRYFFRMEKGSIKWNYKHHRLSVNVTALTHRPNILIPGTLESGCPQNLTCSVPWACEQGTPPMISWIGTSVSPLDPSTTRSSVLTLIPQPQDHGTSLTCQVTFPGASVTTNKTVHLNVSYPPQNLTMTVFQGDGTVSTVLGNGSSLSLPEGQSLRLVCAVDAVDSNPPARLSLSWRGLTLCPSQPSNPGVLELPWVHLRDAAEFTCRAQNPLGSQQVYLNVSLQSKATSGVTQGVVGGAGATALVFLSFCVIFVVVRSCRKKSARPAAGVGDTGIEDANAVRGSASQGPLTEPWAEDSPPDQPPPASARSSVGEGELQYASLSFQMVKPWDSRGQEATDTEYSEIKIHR

[6] = biological target: T12, Human Siglec-9 mutant M14 (human, UniProt Q9Y336 18-463); assay: flow cytometry, HEK293T transfectants
T12 construct: Expressed on HEK293T cells; also called Mutant 14

Human Siglec-9 mutant M9 [7] = biological target: T7, Human Siglec-9 mutant M9; assay: flow cytometry, HEK293T transfectants; '-' indicates full loss of binding
Target sequence in this assay (Q9Y336 other isoform, or with tags, fused parts or gaps mutant): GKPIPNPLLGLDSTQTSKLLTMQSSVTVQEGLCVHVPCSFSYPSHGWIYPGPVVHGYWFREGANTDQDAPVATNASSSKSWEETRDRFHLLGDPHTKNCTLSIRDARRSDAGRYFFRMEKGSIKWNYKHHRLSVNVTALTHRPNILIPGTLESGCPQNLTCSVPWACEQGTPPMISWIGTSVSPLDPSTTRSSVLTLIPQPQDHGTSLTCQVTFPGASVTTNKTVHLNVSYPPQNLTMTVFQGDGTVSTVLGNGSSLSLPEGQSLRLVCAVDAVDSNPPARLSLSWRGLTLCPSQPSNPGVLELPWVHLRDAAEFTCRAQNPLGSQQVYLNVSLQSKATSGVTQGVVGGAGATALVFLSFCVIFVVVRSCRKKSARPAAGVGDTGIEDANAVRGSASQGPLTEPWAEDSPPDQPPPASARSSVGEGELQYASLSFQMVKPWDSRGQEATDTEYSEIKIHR

[8] = biological target: T9, Human Siglec-9 mutant M11; assay: as above
Siglec-7 Fc protein = biological target: T13, Siglec-7 Fc protein (human); assay: ELISA, blocking: Siglec-7 Fc captured on protein A, mAb dilution series, then biotinylated polymer Sia2, streptavidin-peroxidase (top panel); partial inhibition
T13 construct: Produced in CHO cells; also called human Siglec-7 Fc
Protocol: (§1) Blocking of the interaction between Siglec-7 and -9 and sialylated ligands by anti Siglec-7/9 antibodies was tested on ELISA assays. Siglec proteins were Siglec-7 human Fc and Siglec-9 Human Fc recombinant proteins, and ligands were biotinylated polymers with sialylated trisaccharides (Neu5Aca2-3Galb1-4GcNAcb-PAA-biotin Glycotech #01-077 referred to as “Sia1” and 6′-Sialyllactose-PAA-biotin Glycotech #01-039 (referred to as “Sia2”). Briefly, Protein A was coated on ELISA plates over night at 4° C. After 3 washes and saturation, Siglec-7 Fc and Siglec-9 Fc were added at 0.8 μg/well at RT for 1H30. After 3 washes, mAbs were added at 20 ug/ml and a series of dilution of 1:5. After 3 washes, biotinylated sialylated polymers were added for 3 hours at room temperature. After 3 washes, Streptavidin-Peroxidase (Beckman) was added at 1:1000. […] The absorbance was read at 450 nm.

Siglec-9 Fc protein = biological target: T14, Siglec-9 Fc protein (human); assay: ELISA, blocking: Siglec-9 Fc captured on protein A, mAb dilution series, then biotinylated polymer Sia1 (Neu5Aca2-3Galb1-4GlcNAcb-PAA-biotin), streptavidin-peroxidase (top panel)
T14 construct: Produced in CHO cells; also called human Siglec-9 Fc
Protocol: as §1

Human Siglec-9 [9] = biological target: T11, Human Siglec-9; assay: flow cytometry titration on moDC vs neuraminidase-treated moDC
Protocol: moDC were desialylated for 2 hours with 25 mU neuraminidase (Roche Diagnostics).
(§2) Binding on moDCs and neuraminidase treated moDCs was tested in a titration experiment by flow cytometry. Cells were incubated 1h in Staining Buffer (SB) with primary antibodies at 10 ug/ml and a series of dilution of 1:10. They were washed two times with SB, then incubated 30 min with a Goat F(ab′)² Anti-Human IgG (Fc) PE (Jackson ImmunoResearch), and washed twice with SB.

Human Siglec-9 [10] = biological target: T11, Human Siglec-9; assay: flow cytometry titration on untreated monocyte-derived dendritic cells (moDCs), goat F(ab')2 anti-human IgG (Fc) PE; table under the left panel
Protocol: as §2

T5 sequence (Q9Y336 other isoform, or with tags, fused parts or gaps mutant): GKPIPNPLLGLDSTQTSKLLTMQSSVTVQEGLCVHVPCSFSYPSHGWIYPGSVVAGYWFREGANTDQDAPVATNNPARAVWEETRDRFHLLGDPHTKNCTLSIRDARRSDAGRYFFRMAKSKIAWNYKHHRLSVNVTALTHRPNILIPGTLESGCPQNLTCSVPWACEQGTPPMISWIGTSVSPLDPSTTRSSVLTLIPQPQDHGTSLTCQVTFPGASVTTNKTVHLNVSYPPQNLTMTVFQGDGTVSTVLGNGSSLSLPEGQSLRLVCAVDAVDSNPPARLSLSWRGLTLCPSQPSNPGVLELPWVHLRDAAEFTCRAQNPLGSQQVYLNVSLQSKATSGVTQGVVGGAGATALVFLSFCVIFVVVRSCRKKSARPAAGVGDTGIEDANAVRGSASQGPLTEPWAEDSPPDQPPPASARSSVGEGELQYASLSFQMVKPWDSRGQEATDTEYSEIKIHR
T10 sequence (Q9Y336 other isoform, or with tags, fused parts or gaps mutant): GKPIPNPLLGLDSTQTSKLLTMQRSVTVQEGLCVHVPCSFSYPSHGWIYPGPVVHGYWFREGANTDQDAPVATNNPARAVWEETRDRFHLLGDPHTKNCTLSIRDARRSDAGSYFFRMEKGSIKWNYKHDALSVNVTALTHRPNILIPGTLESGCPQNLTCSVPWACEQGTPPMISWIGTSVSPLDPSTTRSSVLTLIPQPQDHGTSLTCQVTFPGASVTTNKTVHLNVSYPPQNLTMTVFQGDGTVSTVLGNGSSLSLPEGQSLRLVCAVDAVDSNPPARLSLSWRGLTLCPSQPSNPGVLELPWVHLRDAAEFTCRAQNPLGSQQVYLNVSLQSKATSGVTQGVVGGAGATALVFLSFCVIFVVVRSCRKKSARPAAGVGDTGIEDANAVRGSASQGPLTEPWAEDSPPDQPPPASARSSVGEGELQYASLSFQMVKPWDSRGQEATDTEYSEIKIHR
T2 sequence (Q9Y336 other isoform, or with tags, fused parts or gaps mutant): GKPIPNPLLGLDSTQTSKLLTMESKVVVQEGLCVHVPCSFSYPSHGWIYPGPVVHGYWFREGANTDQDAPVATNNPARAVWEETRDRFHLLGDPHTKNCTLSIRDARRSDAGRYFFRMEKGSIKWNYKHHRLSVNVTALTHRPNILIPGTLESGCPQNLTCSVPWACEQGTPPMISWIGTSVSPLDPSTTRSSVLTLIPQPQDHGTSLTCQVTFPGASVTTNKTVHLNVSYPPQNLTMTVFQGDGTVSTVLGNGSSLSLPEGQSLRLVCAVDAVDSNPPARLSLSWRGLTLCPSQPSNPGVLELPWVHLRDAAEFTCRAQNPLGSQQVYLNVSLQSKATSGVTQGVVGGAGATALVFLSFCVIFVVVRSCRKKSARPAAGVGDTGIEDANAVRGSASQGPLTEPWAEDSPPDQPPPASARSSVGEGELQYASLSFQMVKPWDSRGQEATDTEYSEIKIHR
T4 sequence (Q9Y336 other isoform, or with tags, fused parts or gaps mutant): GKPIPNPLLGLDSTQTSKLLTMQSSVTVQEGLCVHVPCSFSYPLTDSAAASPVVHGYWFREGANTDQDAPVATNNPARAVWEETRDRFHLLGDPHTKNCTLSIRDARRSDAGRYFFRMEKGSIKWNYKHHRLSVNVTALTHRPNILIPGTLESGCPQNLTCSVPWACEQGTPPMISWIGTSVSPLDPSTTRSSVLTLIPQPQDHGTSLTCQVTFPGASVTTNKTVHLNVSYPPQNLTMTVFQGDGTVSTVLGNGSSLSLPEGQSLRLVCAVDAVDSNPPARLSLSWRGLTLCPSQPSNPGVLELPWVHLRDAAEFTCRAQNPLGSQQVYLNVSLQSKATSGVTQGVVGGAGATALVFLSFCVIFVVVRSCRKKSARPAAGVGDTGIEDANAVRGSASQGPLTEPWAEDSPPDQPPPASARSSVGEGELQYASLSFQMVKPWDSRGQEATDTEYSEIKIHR
T12 sequence (Q9Y336 other isoform, or with tags, fused parts or gaps mutant): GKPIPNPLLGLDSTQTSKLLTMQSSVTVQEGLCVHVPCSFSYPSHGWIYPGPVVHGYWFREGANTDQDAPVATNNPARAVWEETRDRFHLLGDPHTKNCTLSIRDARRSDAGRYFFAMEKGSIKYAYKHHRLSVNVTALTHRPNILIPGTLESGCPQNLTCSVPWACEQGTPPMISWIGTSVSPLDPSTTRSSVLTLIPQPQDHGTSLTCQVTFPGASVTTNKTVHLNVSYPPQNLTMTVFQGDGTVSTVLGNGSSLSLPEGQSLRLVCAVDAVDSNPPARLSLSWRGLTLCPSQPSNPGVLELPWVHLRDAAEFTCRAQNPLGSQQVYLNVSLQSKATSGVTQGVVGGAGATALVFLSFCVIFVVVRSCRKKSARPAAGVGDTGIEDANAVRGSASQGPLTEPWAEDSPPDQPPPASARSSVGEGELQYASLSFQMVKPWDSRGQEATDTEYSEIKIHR
T9 sequence (Q9Y336 other isoform, or with tags, fused parts or gaps mutant): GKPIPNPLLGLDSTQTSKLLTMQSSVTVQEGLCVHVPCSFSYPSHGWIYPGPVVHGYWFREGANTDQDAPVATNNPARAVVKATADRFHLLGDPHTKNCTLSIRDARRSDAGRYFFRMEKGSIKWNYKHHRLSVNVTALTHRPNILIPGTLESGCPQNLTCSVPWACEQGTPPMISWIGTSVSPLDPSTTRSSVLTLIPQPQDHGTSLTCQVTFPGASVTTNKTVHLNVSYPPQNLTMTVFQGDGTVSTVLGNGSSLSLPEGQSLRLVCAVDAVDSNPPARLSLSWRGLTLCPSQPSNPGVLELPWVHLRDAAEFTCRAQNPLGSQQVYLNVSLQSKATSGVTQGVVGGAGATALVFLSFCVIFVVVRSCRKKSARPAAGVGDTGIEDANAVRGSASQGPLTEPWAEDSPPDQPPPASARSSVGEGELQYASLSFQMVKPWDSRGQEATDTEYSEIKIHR
T6 sequence (Q9Y336 other isoform, or with tags, fused parts or gaps mutant): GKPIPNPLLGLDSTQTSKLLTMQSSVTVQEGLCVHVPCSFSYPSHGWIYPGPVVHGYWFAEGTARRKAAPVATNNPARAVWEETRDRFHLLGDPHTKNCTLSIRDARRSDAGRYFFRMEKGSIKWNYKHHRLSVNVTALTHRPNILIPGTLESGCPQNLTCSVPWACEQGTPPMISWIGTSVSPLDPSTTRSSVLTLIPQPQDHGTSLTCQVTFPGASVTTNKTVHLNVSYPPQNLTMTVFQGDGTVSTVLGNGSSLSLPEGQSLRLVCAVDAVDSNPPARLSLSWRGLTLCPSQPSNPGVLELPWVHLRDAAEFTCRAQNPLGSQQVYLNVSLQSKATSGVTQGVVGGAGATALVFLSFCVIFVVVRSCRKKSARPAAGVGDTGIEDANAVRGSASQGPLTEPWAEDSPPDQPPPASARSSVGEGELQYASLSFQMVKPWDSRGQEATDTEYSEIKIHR
T8 sequence (Q9Y336 other isoform, or with tags, fused parts or gaps mutant): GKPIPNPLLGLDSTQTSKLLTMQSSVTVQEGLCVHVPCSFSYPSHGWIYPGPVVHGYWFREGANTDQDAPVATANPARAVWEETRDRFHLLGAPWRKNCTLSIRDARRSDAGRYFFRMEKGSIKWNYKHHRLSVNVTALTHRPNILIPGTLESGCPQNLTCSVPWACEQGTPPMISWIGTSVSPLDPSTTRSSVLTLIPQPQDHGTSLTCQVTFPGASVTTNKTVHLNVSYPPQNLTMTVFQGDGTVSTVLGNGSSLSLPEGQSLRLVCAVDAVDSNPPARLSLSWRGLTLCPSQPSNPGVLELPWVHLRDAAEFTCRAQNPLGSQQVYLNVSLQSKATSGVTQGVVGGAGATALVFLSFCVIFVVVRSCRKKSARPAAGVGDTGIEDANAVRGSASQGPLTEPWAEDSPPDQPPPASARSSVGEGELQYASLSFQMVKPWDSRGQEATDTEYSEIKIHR

B2: mAb1 (antibody, human IgG1, V domains shown)
VH: DVQLQESGPGLVKPSQSLSLTCTVTGYSITGGFAWNWIRQFPGNTLEWMGYIGYGGSTSYNPSLNSRISITRDTSKNHFFLQFNSVTTDDSATYYCARGDYLFAYWGQGTLVTVSA
VL: DIVMTQSHKFMSTSVGDRVSITCKASQDVNTAVAWYQQKPGQSPKLLIYSASYRYTGVPDRFTGSGSGTDFTFTISSVQAEDLAVYYCQQHYSTPRTFGGGTKLEIK
binding result (Human Siglec-9 mutant M2): binds | binding result (Human Siglec-9 mutant M3): binds | binding result (Human Siglec-9 mutant M5): binds | binding result (Human Siglec-9 mutant M6): binds | binding result (Human Siglec-9 mutant M7): binds | binding result (Human Siglec-9 mutant M8): binds | binding result [6]: binds | binding result [4]: binds | binding result (Human Siglec-9 mutant M9 [7]): no binding | binding result [8]: no binding | IC50 (read off the curve) (Siglec-7 Fc protein): ~3 µg/mL

B3: mAb3 (antibody, human IgG1, V domains shown)
VH: B2 VH with D1E, Q5L, S7T, D89E
VL: DILMTQSPASLSASVGETVSITCRASGNIHNYLAWYLQRQGKSPQLLVYNAKTLADGVPSRFSGTGSGTQFSLKINSLQPEDFGSYYCQHFWSTPRTFGGGTKLEIK
binding result (Human Siglec-9 mutant M2): binds | binding result (Human Siglec-9 mutant M3): binds | binding result (Human Siglec-9 mutant M5): binds | binding result (Human Siglec-9 mutant M6): binds | binding result (Human Siglec-9 mutant M7): binds | binding result (Human Siglec-9 mutant M8): binds | binding result [6]: binds | binding result [4]: binds | binding result (Human Siglec-9 mutant M9 [7]): no binding | binding result [8]: no binding | binding result (Siglec-9 Fc protein): binds

B7: mAbD (antibody, human IgG1, V domains shown)
VH: QIQLVQSGPELKKPGETVKISCKASGYTFTDYSMHWVKQAPGKGLKWMGWIITETGEPTYADDFRGRFAFSLETSANTAYLQINNLKNEDTATYFCARDFDGYWGQGTTLTVSS
VL: DILMTQSPASLSASVGETVTITCRASENIYSYLAWYQQKRGKSPQFLVYNAKTLTEGVPSRFRGSGSGTQFSLKINSLQPEDFGTYYCQHHYGFPWTFGGGTKLEIK
binding result (Human Siglec-9 mutant M2): binds | binding result (Human Siglec-9 mutant M3): binds | binding result (Human Siglec-9 mutant M5): binds | binding result (Human Siglec-9 mutant M8): binds | binding result (Human Siglec-9 mutant M9 [1]): binds | binding result [2]: binds | binding result [3]: binds | binding result [6]: binds | binding result [4]: binds | fold change of EC50 after neuraminidase treatment of moDC (Human Siglec-9 [9]): 10 fold | EC50 (Human Siglec-9 [10]): 2.47 µg/mL

The next lines start with the values.

binding result (Human Siglec-9 mutant M2): binds | binding result (Human Siglec-9 mutant M3): binds | binding result (Human Siglec-9 mutant M5): binds | binding result (Human Siglec-9 mutant M6): binds | binding result (Human Siglec-9 mutant M7): binds | binding result (Human Siglec-9 mutant M8): binds | binding result (Human Siglec-9 mutant M9 [1]): binds | binding result [2]: binds | binding result [3]: binds | binding result [4]: binds | EC50 (Human Siglec-9 [5]): 0.1 µg/mL
B1: mAbB (antibody, human IgG1, V domains shown)
VH: QVQLQQPGAELVKPGASVKLSCKASVYTFTSYWMHWVKQRPGQGLEWIGEINPSNGHTNYNEKFKTKAKLTVDKSSSTAYMQLSSLTSEDSAVYFCANGVETYDFDDAMDYWGQGTSVTVSS
VL: DIQMTQTTSSLSASLGDRVTISCRASQDINNYLNWYQQKPDGTVKLLIYFTSRLHSGVPSRFSGSGSGTDYSLTISNLEQEDIATYFCQQGDTFPFTFGGGTKLEIK

binding result (Human Siglec-9 mutant M2): binds | binding result (Human Siglec-9 mutant M3): binds | binding result (Human Siglec-9 mutant M5): binds | binding result (Human Siglec-9 mutant M6): binds | binding result (Human Siglec-9 mutant M7): binds | binding result (Human Siglec-9 mutant M8): binds | binding result [6]: binds | binding result [4]: binds | binding result (Human Siglec-9 mutant M9 [7]): no binding | binding result [8]: no binding
B4: mAb2 (antibody, human IgG1, V domains shown)
VH: B2 VH with D1E, D89E
VL: B2 VL

binding result (Human Siglec-9 mutant M2): binds | binding result (Human Siglec-9 mutant M3): binds | binding result (Human Siglec-9 mutant M5): binds | binding result (Human Siglec-9 mutant M6): binds | binding result (Human Siglec-9 mutant M7): binds | binding result [6]: binds | binding result [4]: binds | EC50 (Human Siglec-9 [5]): 0.01 µg/mL | binding result (Human Siglec-9 mutant M9 [7]): no binding | binding result [8]: no binding
B5: mAbE (antibody, human IgG1, V domains shown)
VH: DVQLVESGGGLVQPGGSRKLSCAASGFTFSTFGMHWVRQAPEKGLEWVAYISSGSNAIYYADTVKGRFTISRDNPKNTLFLQMTSLRSEDTAMYYCASPGYGAWFAYWGQGTLVTVSA
VL: ENVLTQSPAIMSASPGEKVTMTCRASSSVSSAYLHWYQQKSGASPKLWIYSTSNLASGVPARFSGSGSGTSYSLTISSVEAEDAATYYCQQYSAYPYTFGGGTKLEIK

binding result (Human Siglec-9 mutant M2): binds | binding result (Human Siglec-9 mutant M3): binds | binding result (Human Siglec-9 mutant M5): binds | binding result (Human Siglec-9 mutant M6): binds | binding result (Human Siglec-9 mutant M7): binds | binding result [6]: binds | binding result [4]: binds | EC50 (Human Siglec-9 [5]): 0.3 µg/mL | binding result (Human Siglec-9 mutant M9 [7]): no binding | binding result [8]: no binding
B6: mAbF (antibody, human IgG1, V domains shown)
VH: QVQLQQSGPEVVRPGVSVKISCKGSGYTFTDYSMHWVKQSHAKSLEWIGVISTYNGNTNYNQKFKGKATMTVDKSSSTAYMELARLTSEDSAIYYCARRGYYGSSSWFGYWGQGTLVTVSA
VL: DIVMTQSQKFMSTSVGDRVSVTCKASQNVGTDVAWYQQKPGQSPEALIYSASYRYSGVPDRFTGSGSGADFTLTISNVQSEDLAEYFCQQYNSFPYTFGGGTKLEIK
